Source: patent US20240199740A1

Target: soluble recombinant cynomolgus TCR α/β-zipper protein (cynomolgus/rhesus monkey)
Test: ELISA, 2 µg/mL coated soluble recombinant cynomolgus TCR α/β-zipper protein

Sequence of soluble recombinant cynomolgus TCR α/β-zipper protein (cynomolgus/rhesus monkey) (alpha, as listed by the source limits assumed, form in doubt, chain 1 of 2): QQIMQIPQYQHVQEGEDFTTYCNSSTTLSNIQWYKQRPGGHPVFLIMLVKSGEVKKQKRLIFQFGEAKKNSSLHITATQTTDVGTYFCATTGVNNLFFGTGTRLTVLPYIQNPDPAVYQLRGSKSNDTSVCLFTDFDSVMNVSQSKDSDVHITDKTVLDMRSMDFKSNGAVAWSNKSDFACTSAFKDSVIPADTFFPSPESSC
Sequence of soluble recombinant cynomolgus TCR α/β-zipper protein (cynomolgus/rhesus monkey) (beta, as listed by the source limits assumed, form in doubt, chain 2 of 2): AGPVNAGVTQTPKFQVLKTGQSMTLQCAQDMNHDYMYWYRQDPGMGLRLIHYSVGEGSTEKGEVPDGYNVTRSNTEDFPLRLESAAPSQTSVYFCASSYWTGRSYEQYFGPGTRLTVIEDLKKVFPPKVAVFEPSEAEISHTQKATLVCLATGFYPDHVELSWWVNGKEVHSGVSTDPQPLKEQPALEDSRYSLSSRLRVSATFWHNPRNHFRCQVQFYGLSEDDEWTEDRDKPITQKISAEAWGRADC

EC50 (read off the curve): 0.1 nM
Substance: anti-non-human primate/Rat TCRα/β antibody clone R73
